± gives the uncertainty stated by the source.

The data set can be described thus: abundance fitness (aPCA) (normalised: wild type 0, dead -1); higher = more abundant; growth selection in yeast, the domain comes from the species named. The note with it: Homo sapiens.
As for “NEDD4-like E3 ubiquitin-protein ligase WWP2 Y461D, O00308”, the abundance fitness was -1.1 ± 0.15.

In the case of “NEDD4-like E3 ubiquitin-protein ligase WWP2 Y461E, O00308”, the abundance fitness is -0.577 ± 0.071.

In turn, “NEDD4-like E3 ubiquitin-protein ligase WWP2 Y461F, O00308” registered an abundance fitness of -0.236 ± 0.075.

“NEDD4-like E3 ubiquitin-protein ligase WWP2 Y461G, O00308” had an abundance fitness of -0.863 ± 0.045.

In turn, “NEDD4-like E3 ubiquitin-protein ligase WWP2 Y461H, O00308” returned an abundance fitness of -0.526 ± 0.077.

For the substance “NEDD4-like E3 ubiquitin-protein ligase WWP2 Y461I, O00308”, the abundance fitness was -0.509 ± 0.086.

In turn, “NEDD4-like E3 ubiquitin-protein ligase WWP2 Y461K, O00308” came in with an abundance fitness of -0.621 ± 0.072.

Take “NEDD4-like E3 ubiquitin-protein ligase WWP2 Y461L, O00308”: the abundance fitness is -0.375 ± 0.048.

As for “NEDD4-like E3 ubiquitin-protein ligase WWP2 Y461M, O00308”, the abundance fitness is -0.424 ± 0.038.

In turn, “NEDD4-like E3 ubiquitin-protein ligase WWP2 Y461N, O00308” gave an abundance fitness of -0.752 ± 0.052.

“NEDD4-like E3 ubiquitin-protein ligase WWP2 Y461P, O00308” had an abundance fitness of -0.824 ± 0.045.

Substance “NEDD4-like E3 ubiquitin-protein ligase WWP2 Y461Q, O00308” gave an abundance fitness of -0.671 ± 0.079.

In the case of “NEDD4-like E3 ubiquitin-protein ligase WWP2 Y461R, O00308”, the abundance fitness was -0.762 ± 0.046.

As for “NEDD4-like E3 ubiquitin-protein ligase WWP2 Y461T, O00308”, the abundance fitness was -0.445 ± 0.067.

Consider “NEDD4-like E3 ubiquitin-protein ligase WWP2 Y461V, O00308”, for which the abundance fitness is -0.529 ± 0.055.

As for “NEDD4-like E3 ubiquitin-protein ligase WWP2 Y461W, O00308”, the abundance fitness is -0.531 ± 0.053.

“NEDD4-like E3 ubiquitin-protein ligase WWP2 Y491A, O00308” returned an abundance fitness of -0.015 ± 0.059.

In turn, “NEDD4-like E3 ubiquitin-protein ligase WWP2 Y491C, O00308” came in with an abundance fitness of -0.011 ± 0.049.

For “NEDD4-like E3 ubiquitin-protein ligase WWP2 Y491D, O00308”, the abundance fitness came to 0.104 ± 0.074.

Regarding “NEDD4-like E3 ubiquitin-protein ligase WWP2 Y491E, O00308”, the abundance fitness was 0.033 ± 0.064.

For the substance “NEDD4-like E3 ubiquitin-protein ligase WWP2 Y491F, O00308”, the abundance fitness amounted to 0.035 ± 0.07.

Consider “NEDD4-like E3 ubiquitin-protein ligase WWP2 Y491G, O00308”, for which the abundance fitness stood at 0.043 ± 0.04.

Consider “NEDD4-like E3 ubiquitin-protein ligase WWP2 Y491H, O00308”, for which the abundance fitness was 0.026 ± 0.072.

“NEDD4-like E3 ubiquitin-protein ligase WWP2 Y491I, O00308” gave an abundance fitness of 0.022 ± 0.068.

With “NEDD4-like E3 ubiquitin-protein ligase WWP2 Y491K, O00308”, the abundance fitness is -0.061 ± 0.064.

For “NEDD4-like E3 ubiquitin-protein ligase WWP2 Y491L, O00308”, the abundance fitness was -0.016 ± 0.036.

For the substance “NEDD4-like E3 ubiquitin-protein ligase WWP2 Y491M, O00308”, the abundance fitness worked out at 0.018 ± 0.061.

In turn, “NEDD4-like E3 ubiquitin-protein ligase WWP2 Y491N, O00308” came in with an abundance fitness of -0.208 ± 0.076.

As for “NEDD4-like E3 ubiquitin-protein ligase WWP2 Y491P, O00308”, the abundance fitness was -0.003 ± 0.036.

Substance “NEDD4-like E3 ubiquitin-protein ligase WWP2 Y491Q, O00308” displayed an abundance fitness of -0.01 ± 0.051.

Take “NEDD4-like E3 ubiquitin-protein ligase WWP2 Y491R, O00308”: the abundance fitness is -0.001 ± 0.033.

In turn, “NEDD4-like E3 ubiquitin-protein ligase WWP2 Y491S, O00308” gave an abundance fitness of 0.037 ± 0.038.

“NEDD4-like E3 ubiquitin-protein ligase WWP2 Y491T, O00308”: the abundance fitness was determined as 0.039 ± 0.037.

For the substance “NEDD4-like E3 ubiquitin-protein ligase WWP2 Y491V, O00308”, the abundance fitness was determined as 0 ± 0.038.

The substance “NEDD4-like E3 ubiquitin-protein ligase WWP2 Y491W, O00308” showed an abundance fitness of -0.104 ± 0.054.

In turn, “Transcription factor SOX-11 A77S, P35716” registered an abundance fitness of 0.01 ± 0.044.

With “Transcription factor SOX-11 A102Q, P35716”, the abundance fitness is -0.628 ± 0.44.

As to “Transcription factor SOX-11 A111E, P35716”, the abundance fitness was -0.149 ± 0.094.

Take “Transcription factor SOX-11 A111T, P35716”: the abundance fitness stood at 0.039 ± 0.048.

“Transcription factor SOX-11 D92N, P35716” came in with an abundance fitness of -0.18 ± 0.054.

Substance “Transcription factor SOX-11 D92T, P35716” gave an abundance fitness of -0.223 ± 0.079.

For “Transcription factor SOX-11 D115N, P35716”, the abundance fitness was -0.193 ± 0.16.

The substance “Transcription factor SOX-11 E69K, P35716” yielded an abundance fitness of -0.57 ± 0.29.

“Transcription factor SOX-11 E69V, P35716” registered an abundance fitness of -0.401 ± 0.074.

“Transcription factor SOX-11 E78N, P35716” returned an abundance fitness of -0.727 ± 0.09.

Take “Transcription factor SOX-11 E78V, P35716”: the abundance fitness is -0.615 ± 0.066.

Substance “Transcription factor SOX-11 E103S, P35716” came in with an abundance fitness of -0.684 ± 0.072.

“Transcription factor SOX-11 I62D, P35716”: the abundance fitness was -0.203 ± 0.065.

With “Transcription factor SOX-11 I67L, P35716”, the abundance fitness was -0.178 ± 0.066.

For “Transcription factor SOX-11 I79L, P35716”, the abundance fitness was -0.225 ± 0.058.

“Transcription factor SOX-11 I96Q, P35716” gave an abundance fitness of 0.03 ± 0.08.

“Transcription factor SOX-11 I96R, P35716” displayed an abundance fitness of -0.209 ± 0.048.

“Transcription factor SOX-11 I99V, P35716” gave an abundance fitness of -0.094 ± 0.05.

Substance “Transcription factor SOX-11 I99Y, P35716” yielded an abundance fitness of -0.01 ± 0.053.

Regarding “Transcription factor SOX-11 K50R, P35716”, the abundance fitness is -0.396 ± 0.13.

“Transcription factor SOX-11 K85Q, P35716” gave an abundance fitness of 0.228 ± 0.13.

“Transcription factor SOX-11 K85S, P35716” had an abundance fitness of 0.026 ± 0.05.

Substance “Transcription factor SOX-11 K91S, P35716” had an abundance fitness of 0.081 ± 0.044.

“Transcription factor SOX-11 K91T, P35716” returned an abundance fitness of 0.151 ± 0.056.

Take “Transcription factor SOX-11 K108Q, P35716”: the abundance fitness is -0.031 ± 0.13.

As to “Transcription factor SOX-11 L90M, P35716”, the abundance fitness is 0.343 ± 0.13.

As to “Transcription factor SOX-11 L107K, P35716”, the abundance fitness was -0.218 ± 0.14.

As to “Transcription factor SOX-11 M68A, P35716”, the abundance fitness was -0.247 ± 0.066.

Consider “Transcription factor SOX-11 M68L, P35716”, for which the abundance fitness was found to be 0.093 ± 0.059.

Consider “Transcription factor SOX-11 M74L, P35716”, for which the abundance fitness is -0.084 ± 0.056.

Turning to “Transcription factor SOX-11 M89A, P35716”, the abundance fitness amounted to 0.098 ± 0.071.

For the substance “Transcription factor SOX-11 M110L, P35716”, the abundance fitness is -0.068 ± 0.053.

“Transcription factor SOX-11 Q70A, P35716” yielded an abundance fitness of -0.128 ± 0.065.

Turning to “Transcription factor SOX-11 R65K, P35716”, the abundance fitness was -0.364 ± 0.34.

With “Transcription factor SOX-11 R82I, P35716”, the abundance fitness is 0.406 ± 0.048.

In turn, “Transcription factor SOX-11 R82M, P35716” had an abundance fitness of 0.124 ± 0.12.

Substance “Transcription factor SOX-11 R86S, P35716” came in with an abundance fitness of -0.07 ± 0.046.

For the substance “Transcription factor SOX-11 R100E, P35716”, the abundance fitness is 0.218 ± 0.12.

Regarding “Transcription factor SOX-11 S60A, P35716”, the abundance fitness is 0.15 ± 0.097.

“Transcription factor SOX-11 S71C, P35716” registered an abundance fitness of -0.055 ± 0.052.

On to “Transcription factor SOX-11 S93L, P35716”, for which the abundance fitness was -0.568 ± 0.099.
